This test has as its target Q394X truncation of the ER-tethered Ste6 NBD2 chimera (yeast). Kind of test: co-IP.

As to “Hsp104 (from UniProt P31539 1-908) (natural protein)”, the fold above background was 2 fold.

(Values after PMC5912696.)
